Experimental data published in paper PMC2891049.
Like-named read-outs stand apart in the source and are kept apart here.

Experiments:
[1] = target: T1, C-reactive protein (UniProt P02741 19-224); test: pull-down
T1 sequence: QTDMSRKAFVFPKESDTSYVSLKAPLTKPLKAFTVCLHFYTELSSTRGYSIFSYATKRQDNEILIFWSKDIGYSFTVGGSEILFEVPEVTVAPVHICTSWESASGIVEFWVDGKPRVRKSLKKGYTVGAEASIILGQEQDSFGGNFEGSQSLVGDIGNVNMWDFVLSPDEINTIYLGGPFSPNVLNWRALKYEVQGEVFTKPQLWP

[2] = target: T1, C-reactive protein; test: pull-down; remark: listed apart in the source

B1: MB-P (PDGF-BB sensing aptamer) (structured_DNA)
DNA: GATGTCCACGAGGTCTCTGCGGCATCAACAATCTCGAATTTTTTACTCAGGGCACTGCAAGCAATTGTGGTCCCAATGGGCTGAGTATCGTACGCTGCAGGTCGAC
[1]
  binding result: no binding

B2: MB-T (thrombin sensing aptamer) (structured_DNA)
DNA: GATGTCCACGAGGTCTCTATTGCATTCGCACTTCCGATTTTTTCAGTCCGTGGTAGGGCAGGTTGGGGTGACTCGTACGCTGCAGGTCGAC
[2]
  binding result: no binding
